In PMC9482650, “Quantitative fragmentomics allow affinity mapping of interactomes” (Nature Communications, 2022):

Columns and labels:
Assay in all cases: holdup assay
Design in all cases: key: below the threshold = too weak to quantify, mostly under pKd 3.1 to 4
APBA2_2, Q99767 = target: T1, APBA2_2, Q99767
T1 sequence (Q99767 654-744, limits assumed, looked up): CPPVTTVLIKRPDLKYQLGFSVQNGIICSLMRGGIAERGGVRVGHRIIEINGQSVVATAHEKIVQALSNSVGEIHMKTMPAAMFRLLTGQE

DLG1_1, Q12959 = target: DLG1_1, Q12959
DLG4_3, P78352 = target: DLG4_3, P78352
Sequence of DLG4_3, P78352 (P78352 306-403): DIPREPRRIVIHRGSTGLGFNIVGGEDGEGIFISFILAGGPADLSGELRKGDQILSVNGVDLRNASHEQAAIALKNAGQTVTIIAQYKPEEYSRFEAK

FRMPD2_3, Q68DX3 = target: FRMPD2_3, Q68DX3
Sequence of FRMPD2_3, Q68DX3 (Q68DX3 1073-1166): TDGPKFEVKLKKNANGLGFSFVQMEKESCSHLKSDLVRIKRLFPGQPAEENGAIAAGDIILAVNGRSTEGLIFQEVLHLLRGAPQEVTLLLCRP

GORASP1, Q9BQQ3 = target: GORASP1, Q9BQQ3
Sequence of GORASP1, Q9BQQ3 (Q9BQQ3 1-208): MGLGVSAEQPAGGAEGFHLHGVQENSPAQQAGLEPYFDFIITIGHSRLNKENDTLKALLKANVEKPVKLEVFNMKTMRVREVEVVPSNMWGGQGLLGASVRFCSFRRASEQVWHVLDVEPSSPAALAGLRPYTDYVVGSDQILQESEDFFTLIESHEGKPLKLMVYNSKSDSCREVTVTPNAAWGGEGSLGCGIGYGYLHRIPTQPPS

GRIP1_4, Q9Y3R0 = target: T2, GRIP1_4, Q9Y3R0
T2 sequence (Q9Y3R0 467-571, limits assumed, looked up): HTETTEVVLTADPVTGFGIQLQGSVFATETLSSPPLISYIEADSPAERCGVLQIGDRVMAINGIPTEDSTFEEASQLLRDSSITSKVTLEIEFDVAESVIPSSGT

GRIP2_6, Q9C0E4 = target: GRIP2_6, Q9C0E4
Sequence of GRIP2_6, Q9C0E4 (Q9C0E4 648-740): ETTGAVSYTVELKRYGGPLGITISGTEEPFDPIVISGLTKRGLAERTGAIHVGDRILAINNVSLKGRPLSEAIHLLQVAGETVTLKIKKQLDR

HTRA2, O43464 = target: HTRA2, O43464
Sequence of HTRA2, O43464 (O43464 355-458): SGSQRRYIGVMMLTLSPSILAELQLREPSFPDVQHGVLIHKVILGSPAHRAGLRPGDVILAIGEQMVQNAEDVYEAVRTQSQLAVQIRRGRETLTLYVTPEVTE

IL16_1, Q14005 = target: IL16_1, Q14005
Sequence of IL16_1, Q14005 (Q14005 210-306): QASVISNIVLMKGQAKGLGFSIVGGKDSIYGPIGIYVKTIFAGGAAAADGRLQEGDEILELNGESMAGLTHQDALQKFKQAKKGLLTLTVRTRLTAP

LNX1_1, Q8TBB1 = target: LNX1_1, Q8TBB1
Sequence of LNX1_1, Q8TBB1 (Q8TBB1 261-371): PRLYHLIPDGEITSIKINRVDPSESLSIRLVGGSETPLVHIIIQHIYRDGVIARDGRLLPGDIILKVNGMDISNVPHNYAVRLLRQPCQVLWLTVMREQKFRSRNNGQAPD

LNX1_2, Q8TBB1 = target: LNX1_2, Q8TBB1
Sequence of LNX1_2, Q8TBB1 (Q8TBB1 371-470): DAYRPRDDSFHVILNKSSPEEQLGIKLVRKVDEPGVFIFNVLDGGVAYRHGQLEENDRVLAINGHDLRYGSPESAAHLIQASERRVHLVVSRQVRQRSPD

LRRC7, Q96NW7 = target: T3, LRRC7, Q96NW7
T3 sequence (Q96NW7 1440-1537, limits assumed, looked up): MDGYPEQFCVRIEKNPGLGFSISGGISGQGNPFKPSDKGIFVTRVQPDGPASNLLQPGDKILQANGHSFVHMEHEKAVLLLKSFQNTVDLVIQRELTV

MAGI1_2, Q96QZ7 = target: MAGI1_2, Q96QZ7
Sequence of MAGI1_2, Q96QZ7 (Q96QZ7 456-580): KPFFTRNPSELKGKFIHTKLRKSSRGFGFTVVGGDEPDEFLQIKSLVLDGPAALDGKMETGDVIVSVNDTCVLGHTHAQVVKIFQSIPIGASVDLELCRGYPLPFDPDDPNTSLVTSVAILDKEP

MAGI2_4, Q86UL8 = target: MAGI2_4, Q86UL8
Sequence of MAGI2_4, Q86UL8 (Q86UL8 772-865): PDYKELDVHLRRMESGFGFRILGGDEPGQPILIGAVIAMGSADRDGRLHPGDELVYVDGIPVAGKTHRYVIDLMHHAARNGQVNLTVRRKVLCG

MPDZ_5, O75970 = target: T4, MPDZ_5, O75970
T4 sequence (O75970 695-796, limits assumed, looked up): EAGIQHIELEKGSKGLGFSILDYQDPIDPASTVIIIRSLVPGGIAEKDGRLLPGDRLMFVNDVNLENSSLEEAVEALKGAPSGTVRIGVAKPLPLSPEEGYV

MPP2, Q14168 = target: T5, MPP2, Q14168
T5 sequence (Q14168 180-250, limits assumed, looked up): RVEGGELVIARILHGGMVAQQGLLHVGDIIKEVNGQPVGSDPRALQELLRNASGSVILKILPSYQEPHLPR

MPP6, Q9NZW5 = target: T6, MPP6, Q9NZW5
T6 sequence (Q9NZW5 125-219, limits assumed, looked up): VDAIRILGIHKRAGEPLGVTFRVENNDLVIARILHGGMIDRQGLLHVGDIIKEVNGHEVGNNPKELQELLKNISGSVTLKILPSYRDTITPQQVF

MPP7, Q5T2T1 = target: T7, MPP7, Q5T2T1
T7 sequence (Q5T2T1 134-230, limits assumed, looked up): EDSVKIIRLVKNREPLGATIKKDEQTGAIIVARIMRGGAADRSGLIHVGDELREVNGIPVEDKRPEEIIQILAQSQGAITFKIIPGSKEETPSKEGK

NHERF3_1, Q5T2W1 = target: T8, NHERF3_1, Q5T2W1
T8 sequence (Q5T2W1 4-100, limits assumed, looked up): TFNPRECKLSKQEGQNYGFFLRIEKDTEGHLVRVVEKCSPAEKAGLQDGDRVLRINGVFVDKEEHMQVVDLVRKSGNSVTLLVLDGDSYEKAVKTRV

PDZD2_2, O15018 = target: T9, PDZD2_2, O15018
T9 sequence (O15018 329-429, limits assumed, looked up): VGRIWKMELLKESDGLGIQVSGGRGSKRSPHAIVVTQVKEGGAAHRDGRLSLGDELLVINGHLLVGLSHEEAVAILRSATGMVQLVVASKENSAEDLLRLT

PDZD7_3, Q9H5P4 = target: T10, PDZD7_3, Q9H5P4
T10 sequence (Q9H5P4 857-944, limits assumed, looked up): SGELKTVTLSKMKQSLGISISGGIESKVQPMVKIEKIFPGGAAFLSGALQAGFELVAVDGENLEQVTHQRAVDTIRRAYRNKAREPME

RHPN1, Q8TCX5 = target: T11, RHPN1, Q8TCX5
T11 sequence (Q8TCX5 508-602, limits assumed, looked up): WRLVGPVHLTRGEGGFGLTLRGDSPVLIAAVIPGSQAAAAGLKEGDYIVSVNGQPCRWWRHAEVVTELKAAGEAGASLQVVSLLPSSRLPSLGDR

SCRIB_2, Q14160 = target: SCRIB_2, Q14160
Sequence of SCRIB_2, Q14160 (Q14160 857-960): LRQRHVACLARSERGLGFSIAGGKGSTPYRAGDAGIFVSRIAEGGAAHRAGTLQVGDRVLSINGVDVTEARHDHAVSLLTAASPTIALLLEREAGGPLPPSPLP

SYNJ2BP, P57105 = target: T12, SYNJ2BP, P57105
T12 sequence (P57105 8-110, limits assumed, looked up): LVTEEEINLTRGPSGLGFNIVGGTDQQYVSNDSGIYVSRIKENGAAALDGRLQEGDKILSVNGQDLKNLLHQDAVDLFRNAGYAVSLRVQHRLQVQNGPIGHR

TJP3_3, O95049 = target: T13, TJP3_3, O95049
T13 sequence (O95049 375-456, limits assumed, looked up): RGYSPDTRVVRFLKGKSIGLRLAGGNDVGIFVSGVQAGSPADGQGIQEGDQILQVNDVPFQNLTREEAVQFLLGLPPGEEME

[1] = plain residues with an end cap or a label only (N-terminal biotin on a linker: ahx)
[2] = plain residues with an end cap or a label only (N-terminal biotin on a linker: ado-ado)

Binder: TQKFRASTAL [FRMPD1, Q5SYB0]
- pKd (APBA2_2, Q99767; [1]): below the threshold
- pKd (DLG1_1, Q12959; [1]): below the threshold
- pKd (DLG4_3, P78352; [1]): 3.78
- pKd (FRMPD2_3, Q68DX3; [1]): below the threshold
- pKd (GORASP1, Q9BQQ3; [1]): 3.51
- pKd (GRIP1_4, Q9Y3R0; [1]): below the threshold
- pKd (GRIP2_6, Q9C0E4; [1]): below the threshold
- pKd (HTRA2, O43464; [1]): below the threshold
- pKd (IL16_1, Q14005; [1]): below the threshold
- pKd (LNX1_1, Q8TBB1; [1]): below the threshold
- pKd (LNX1_2, Q8TBB1; [1]): below the threshold
- pKd (LRRC7, Q96NW7; [1]): below the threshold
- pKd (MAGI1_2, Q96QZ7; [1]): 4.97
- pKd (MAGI2_4, Q86UL8; [1]): 3.48
- pKd (MPDZ_5, O75970; [1]): below the threshold
- pKd (MPP2, Q14168; [1]): below the threshold
- pKd (MPP6, Q9NZW5; [1]): below the threshold
- pKd (MPP7, Q5T2T1; [1]): below the threshold
- pKd (NHERF3_1, Q5T2W1; [1]): 5.47
- pKd (PDZD2_2, O15018; [1]): below the threshold
- pKd (PDZD7_3, Q9H5P4; [1]): 3.92
- pKd (RHPN1, Q8TCX5; [1]): 3.79
- pKd (SCRIB_2, Q14160; [1]): below the threshold
- pKd (SYNJ2BP, P57105; [1]): 4.26
- pKd (TJP3_3, O95049; [1]): below the threshold

Binder: ARSAAASNYV [CLDN4, O14493]
- pKd (APBA2_2, Q99767; [2]): below the threshold
- pKd (DLG1_1, Q12959; [2]): below the threshold
- pKd (DLG4_3, P78352; [2]): below the threshold
- pKd (FRMPD2_3, Q68DX3; [2]): below the threshold
- pKd (GORASP1, Q9BQQ3; [2]): 3.69
- pKd (GRIP1_4, Q9Y3R0; [2]): below the threshold
- pKd (GRIP2_6, Q9C0E4; [2]): below the threshold
- pKd (HTRA2, O43464; [2]): below the threshold
- pKd (IL16_1, Q14005; [2]): below the threshold
- pKd (LNX1_1, Q8TBB1; [2]): 3.57
- pKd (LNX1_2, Q8TBB1; [2]): below the threshold
- pKd (LRRC7, Q96NW7; [2]): below the threshold
- pKd (MAGI1_2, Q96QZ7; [2]): below the threshold
- pKd (MAGI2_4, Q86UL8; [2]): 3.65
- pKd (MPDZ_5, O75970; [2]): below the threshold
- pKd (MPP2, Q14168; [2]): below the threshold
- pKd (MPP6, Q9NZW5; [2]): below the threshold
- pKd (MPP7, Q5T2T1; [2]): below the threshold
- pKd (NHERF3_1, Q5T2W1; [2]): 4.48
- pKd (PDZD2_2, O15018; [2]): 4.49
- pKd (PDZD7_3, Q9H5P4; [2]): below the threshold
- pKd (RHPN1, Q8TCX5; [2]): below the threshold
- pKd (SCRIB_2, Q14160; [2]): below the threshold
- pKd (SYNJ2BP, P57105; [2]): 3.85
- pKd (TJP3_3, O95049; [2]): 3.65

Binder: NTLNRKTTPV [CACNG8, Q8WXS5]
- pKd (APBA2_2, Q99767; [2]): below the threshold
- pKd (DLG1_1, Q12959; [2]): 4.32
- pKd (DLG4_3, P78352; [2]): 4.89
- pKd (FRMPD2_3, Q68DX3; [2]): below the threshold
- pKd (GORASP1, Q9BQQ3; [2]): below the threshold
- pKd (GRIP1_4, Q9Y3R0; [2]): below the threshold
- pKd (GRIP2_6, Q9C0E4; [2]): below the threshold
- pKd (HTRA2, O43464; [2]): below the threshold
- pKd (IL16_1, Q14005; [2]): below the threshold
- pKd (LNX1_1, Q8TBB1; [2]): 3.66
- pKd (LNX1_2, Q8TBB1; [2]): below the threshold
- pKd (LRRC7, Q96NW7; [2]): below the threshold
- pKd (MAGI1_2, Q96QZ7; [2]): 4.64
- pKd (MAGI2_4, Q86UL8; [2]): 3.69
- pKd (MPDZ_5, O75970; [2]): below the threshold
- pKd (MPP2, Q14168; [2]): below the threshold
- pKd (MPP6, Q9NZW5; [2]): 3.93
- pKd (MPP7, Q5T2T1; [2]): below the threshold
- pKd (NHERF3_1, Q5T2W1; [2]): 3.48
- pKd (PDZD2_2, O15018; [2]): 3.81
- pKd (PDZD7_3, Q9H5P4; [2]): 4.56
- pKd (RHPN1, Q8TCX5; [2]): below the threshold
- pKd (SCRIB_2, Q14160; [2]): 3.62
- pKd (SYNJ2BP, P57105; [2]): 4.85
- pKd (TJP3_3, O95049; [2]): below the threshold
